According to the supplement of paper PMC9112550, “Optimization of the antimicrobial peptide Bac7 by deep mutational scanning” (BMC Biology, 2022):

System: Escherichia coli TOP10
Experiment: shrunken log2 fold change of peptide-encoding DNA abundance (4.5 h post-induction vs induction); higher = less antimicrobial activity (less host growth inhibition)
Settings: time post-induction: 4.5 h; library: site-saturation at positions 5, 18, 19, 20
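Note: peptides expressed intracellularly from a pBAD plasmid library in pooled LB shake-flask culture, induced with 0.3% L-arabinose, DNA abundance read by NGS, three biological replicates, DESeq2 with apeglm shrinkage.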

Q: How did the “shrunken log2 fold change” value turn out when RRIRYRPPRLPRPRPRPDDEPRP was run?
A: Its value is 0.00902.

Q: RRIRGRPPRLPRPRPRPEWEPRP was tested. Which “shrunken log2 fold change” value did it give?
A: The value was 0.00476.

Q: How did the “shrunken log2 fold change” value turn out when RRIRGRPPRLPRPRPRPVEYPRP was run?
A: The value was -0.0779.

Q: Which “shrunken log2 fold change” value does the source give for RRIRVRPPRLPRPRPRPGMIPRP here?
A: The value was -0.2.

Q: With RRIRHRPPRLPRPRPRPKFHPRP as the sequence, how does the “shrunken log2 fold change” value read?
A: Its value is -0.429.

Q: With RRIRVRPPRLPRPRPRPDAHPRP as the sequence, how does the “shrunken log2 fold change” value read?
A: The value was 0.21.

Q: Which “shrunken log2 fold change” value does the source give for RRIRLRPPRLPRPRPRPWYWPRP here?
A: The value was 0.134.

Q: For RRIRDRPPRLPRPRPRPRWHPRP, which “shrunken log2 fold change” value is on record?
A: The value was 0.42.

Q: How did the “shrunken log2 fold change” value turn out when RRIRSRPPRLPRPRPRPQKQPRP was run?
A: The value was -0.122.

Q: With RRIRVRPPRLPRPRPRPCPIPRP as the sequence, how does the “shrunken log2 fold change” value read?
A: The value was -0.296.

Q: Which “shrunken log2 fold change” value does the source give for RRIRNRPPRLPRPRPRPYRRPRP here?
A: Its value is -0.281.

Q: Which “shrunken log2 fold change” value does the source give for RRIRERPPRLPRPRPRPAMLPRP here?
A: Its value is -0.155.

Q: RRIRSRPPRLPRPRPRPQYFPRP was tested. Which “shrunken log2 fold change” value did it give?
A: The value was -0.18.

Q: Which “shrunken log2 fold change” value does the source give for RRIRKRPPRLPRPRPRPLDVPRP here?
A: Its value is 0.0117.

Q: With RRIRARPPRLPRPRPRPRHAPRP as the sequence, how does the “shrunken log2 fold change” value read?
A: The value was 0.612.

Q: Which “shrunken log2 fold change” value does the source give for RRIRNRPPRLPRPRPRPKGCPRP here?
A: Its value is -0.0382.

Q: How did the “shrunken log2 fold change” value turn out when RRIRKRPPRLPRPRPRPHSHPRP was run?
A: Its value is 0.179.

Q: How did the “shrunken log2 fold change” value turn out when RRIRTRPPRLPRPRPRPLLMPRP was run?
A: The value was -0.278.

Q: With RRIRTRPPRLPRPRPRPSPYPRP as the sequence, how does the “shrunken log2 fold change” value read?
A: The value was -0.573.

Q: How did the “shrunken log2 fold change” value turn out when RRIRTRPPRLPRPRPRPLISPRP was run?
A: The value was -0.145.

Q: With RRIRGRPPRLPRPRPRPIQPPRP as the sequence, how does the “shrunken log2 fold change” value read?
A: Its value is 0.46.

Q: With RRIRCRPPRLPRPRPRPKAAPRP as the sequence, how does the “shrunken log2 fold change” value read?
A: Its value is 0.115.

Q: How did the “shrunken log2 fold change” value turn out when RRIRKRPPRLPRPRPRPSFAPRP was run?
A: Its value is 0.337.

Q: For RRIRFRPPRLPRPRPRPELPPRP, which “shrunken log2 fold change” value is on record?
A: The value was -0.0615.

Q: How did the “shrunken log2 fold change” value turn out when RRIRNRPPRLPRPRPRPQWPPRP was run?
A: The value was 0.00622.

Q: With RRIRERPPRLPRPRPRPMGVPRP as the sequence, how does the “shrunken log2 fold change” value read?
A: The value was 0.22.

Q: How did the “shrunken log2 fold change” value turn out when RRIRARPPRLPRPRPRPWRWPRP was run?
A: The value was 0.451.

Q: RRIRERPPRLPRPRPRPSQGPRP was tested. Which “shrunken log2 fold change” value did it give?
A: The value was -0.153.

Q: Which “shrunken log2 fold change” value does the source give for RRIRKRPPRLPRPRPRPTIIPRP here?
A: The value was -0.0974.

Q: For RRIRVRPPRLPRPRPRPSIEPRP, which “shrunken log2 fold change” value is on record?
A: The value was -0.255.

Q: Which “shrunken log2 fold change” value does the source give for RRIRRRPPRLPRPRPRPWHAPRP here?
A: The value was 0.279.

Q: RRIRLRPPRLPRPRPRPWHEPRP was tested. Which “shrunken log2 fold change” value did it give?
A: The value was 0.0149.

Q: With RRIRGRPPRLPRPRPRPPFGPRP as the sequence, how does the “shrunken log2 fold change” value read?
A: The value was 0.738.

Q: With RRIRQRPPRLPRPRPRPHQPPRP as the sequence, how does the “shrunken log2 fold change” value read?
A: The value was 0.00524.

Q: RRIRTRPPRLPRPRPRPRTIPRP was tested. Which “shrunken log2 fold change” value did it give?
A: Its value is 0.0752.

Q: How did the “shrunken log2 fold change” value turn out when RRIRSRPPRLPRPRPRPHLFPRP was run?
A: Its value is -0.32.

Q: For RRIRMRPPRLPRPRPRPMDVPRP, which “shrunken log2 fold change” value is on record?
A: The value was -0.0209.

Q: Which “shrunken log2 fold change” value does the source give for RRIRMRPPRLPRPRPRPPQDPRP here?
A: The value was 1.24.

Q: How did the “shrunken log2 fold change” value turn out when RRIRPRPPRLPRPRPRPKWKPRP was run?
A: The value was -0.0038.

Q: Which “shrunken log2 fold change” value does the source give for RRIRARPPRLPRPRPRPDGEPRP here?
A: The value was 0.209.

Q: How did the “shrunken log2 fold change” value turn out when RRIRSRPPRLPRPRPRPLCEPRP was run?
A: Its value is 0.0616.

Q: How did the “shrunken log2 fold change” value turn out when RRIRGRPPRLPRPRPRPRWVPRP was run?
A: The value was 0.289.

Q: How did the “shrunken log2 fold change” value turn out when RRIRDRPPRLPRPRPRPDLYPRP was run?
A: Its value is 0.309.

Q: With RRIRERPPRLPRPRPRPKSWPRP as the sequence, how does the “shrunken log2 fold change” value read?
A: Its value is 0.715.

Q: For RRIRMRPPRLPRPRPRPFEMPRP, which “shrunken log2 fold change” value is on record?
A: Its value is 0.0316.

Q: RRIRKRPPRLPRPRPRPVSVPRP was tested. Which “shrunken log2 fold change” value did it give?
A: The value was -0.0496.

Q: With RRIRHRPPRLPRPRPRPHELPRP as the sequence, how does the “shrunken log2 fold change” value read?
A: Its value is -0.126.

Q: RRIRLRPPRLPRPRPRPTCMPRP was tested. Which “shrunken log2 fold change” value did it give?
A: The value was -0.228.

Q: How did the “shrunken log2 fold change” value turn out when RRIRLRPPRLPRPRPRPTTGPRP was run?
A: Its value is 0.0715.

Q: How did the “shrunken log2 fold change” value turn out when RRIRRRPPRLPRPRPRPVSSPRP was run?
A: Its value is 0.0647.

Q: For RRIRDRPPRLPRPRPRPFILPRP, which “shrunken log2 fold change” value is on record?
A: Its value is -0.293.

Q: For RRIRFRPPRLPRPRPRPTFPPRP, which “shrunken log2 fold change” value is on record?
A: Its value is -0.0193.

Q: With RRIRDRPPRLPRPRPRPVPYPRP as the sequence, how does the “shrunken log2 fold change” value read?
A: Its value is -0.244.

Q: RRIRSRPPRLPRPRPRPAKVPRP was tested. Which “shrunken log2 fold change” value did it give?
A: Its value is -0.0898.

Q: Which “shrunken log2 fold change” value does the source give for RRIRLRPPRLPRPRPRPIYWPRP here?
A: Its value is -0.0187.

Q: RRIRNRPPRLPRPRPRPKLNPRP was tested. Which “shrunken log2 fold change” value did it give?
A: Its value is -0.208.

Q: Which “shrunken log2 fold change” value does the source give for RRIRKRPPRLPRPRPRPRFDPRP here?
A: Its value is 0.19.

Q: RRIRMRPPRLPRPRPRPNCYPRP was tested. Which “shrunken log2 fold change” value did it give?
A: Its value is -0.26.

Q: Which “shrunken log2 fold change” value does the source give for RRIRDRPPRLPRPRPRPLEEPRP here?
A: The value was 0.0347.

Q: For RRIRGRPPRLPRPRPRPFLTPRP, which “shrunken log2 fold change” value is on record?
A: Its value is 0.0427.

Q: RRIRGRPPRLPRPRPRPPRDPRP was tested. Which “shrunken log2 fold change” value did it give?
A: Its value is 1.12.

Q: How did the “shrunken log2 fold change” value turn out when RRIRNRPPRLPRPRPRPHGQPRP was run?
A: The value was -0.0642.

Q: RRIRYRPPRLPRPRPRPGKYPRP was tested. Which “shrunken log2 fold change” value did it give?
A: The value was -0.466.

Q: RRIRCRPPRLPRPRPRPMWNPRP was tested. Which “shrunken log2 fold change” value did it give?
A: The value was -0.195.

Q: How did the “shrunken log2 fold change” value turn out when RRIRFRPPRLPRPRPRPLPYPRP was run?
A: The value was -0.101.

Q: Which “shrunken log2 fold change” value does the source give for RRIRVRPPRLPRPRPRPALQPRP here?
A: Its value is 0.0743.

Q: RRIRARPPRLPRPRPRPHSSPRP was tested. Which “shrunken log2 fold change” value did it give?
A: Its value is -0.137.

Q: How did the “shrunken log2 fold change” value turn out when RRIRKRPPRLPRPRPRPAMFPRP was run?
A: The value was 0.337.

Q: How did the “shrunken log2 fold change” value turn out when RRIRDRPPRLPRPRPRPVWEPRP was run?
A: Its value is 0.0337.

Q: RRIRLRPPRLPRPRPRPARKPRP was tested. Which “shrunken log2 fold change” value did it give?
A: The value was 0.0589.

Q: How did the “shrunken log2 fold change” value turn out when RRIRNRPPRLPRPRPRPIAAPRP was run?
A: The value was 0.147.

Q: For RRIRERPPRLPRPRPRPIQSPRP, which “shrunken log2 fold change” value is on record?
A: The value was -0.642.

Q: RRIRWRPPRLPRPRPRPIYTPRP was tested. Which “shrunken log2 fold change” value did it give?
A: The value was -0.412.

Q: How did the “shrunken log2 fold change” value turn out when RRIRDRPPRLPRPRPRPLVGPRP was run?
A: The value was 0.337.

Q: RRIRQRPPRLPRPRPRPLADPRP was tested. Which “shrunken log2 fold change” value did it give?
A: The value was 0.194.
